69 sequences from the domain aggregation screens of Martell et al. (2025) can be followed below.

A short description of the series: soluble fraction after stress (log2 fold change); higher = more stays soluble; pooled small domains, quantitative proteomics. The conditions noted are these: stress: 50 degC. The essentials:
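Pooled custom libraries of small protein domains were measured in a high-throughput format, with quantitative proteomics as the read-out. Each library was stressed at 50°C. Aggregation propensity is given as the base-two logarithm of the fold change in how much of each protein stays soluble after the stress. Higher values mean a larger share of the protein remains in solution.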
Turning to “HMKLTKPKLIQLIHIAKSKLNMDELSYRVLLDNLTGKTSTTKMTVGELLKVYESMKDKGFKPQV”, the “soluble fraction (log2)” value was -0.166. For the sequence “HMKLTTRQTEIINIVKAEQPISGEKIAQNLGLSRATLRNDLSILTMTGLLDAKPKVGYFYTGQ”, the “soluble fraction (log2)” value was -0.447. On to “HMKLVESALSILEEAVDRDFHGNLGDAARYFDIPYQTIYSWLKSRKRVPSLRALEPVLEKLGVSFTT”, for which the “soluble fraction (log2)” value is -0.896. In the case of “HMKLVTIPNVIGKTKEDAMKTLKDLGVTVTVETKESEKDDGTVIAQSKAEGTKLTAGENVTITVSKKKK” it was 0.139; in that of “HMKMATITKRTNPSGAVVYRAQVRVKREGYPPYSESRTFSKKSLATEWAKRREFEIETNPDLLFN”, -1.26. In the case of “HMKMLEINDNDSVGLKNLKTQYNHNQKVIENFQLEINKVINDGELPDKYLLDGMEKYQKLNMQIMSTIEKQ” it was 0.00483.

Regarding “HMKMPNGYGSVYKLSGNRRKPWAARVTDGWVNDTKTKKSKQKYKFIGFYETRKEALLALADYNANP”, the “soluble fraction (log2)” value is -1.43. On to “HMKMSLKENLLELLQKSSGEFLSGERAAETLGVSRTAVWKAVTSLKNEGYNIESVTNRGYRFS”, for which the “soluble fraction (log2)” value was -0.0145. Consider “HMKNANGYGSITKLKGNRRKPYMVRITVGRDENGFPIRKVLGYYSSKANAVAALSDYNREPYDI”, for which the “soluble fraction (log2)” value is -0.667.

For “HMKNENSLLVSRLAEEKIINRAKLVLMEYLKLSEPQAHRYIEKQAMDLQISRAEVAARVLETYE”, the “soluble fraction (log2)” value is -0.0477. In the case of “HMKNEVENLSYMINRIIEYRDLNNLSNKNLANKIGISEALLSYILNGRRKLSKEIQRKIALFLLND” it was -1.49; in that of “HMKNFAPVWGEEGAEFGKEVDTGFRLRIVEKEKDVNDLFEVIQKHTIQSQWKPGSTGTESIYKRI”, 0.37; in that of “HMKNHIEERRKARGMTQQQLASELGVSRQTIISLENGKYNPSILLAHSIARLFGERIEDIFILR”, -1.6.

Take “HMKNINTNIGKNLKRIRKLRGLTIDALATSSGVSKSMISEIERGIRNPSITIIWSLANALKTPLNYFLKE”: the “soluble fraction (log2)” value is -0.115.

Turning to “HMKNKFYEEFSDYIFKHTGIHYAEANYYQLDARINKLMKFLETSDENDVLKAIQGGAVKDQRVHQMIVDLA”, the “soluble fraction (log2)” value is -1.7.

“HMKNKRERLGIISEILRMQVIGSQEELLDILRAKGYDVTQATLSRDLKVLKVAKTPLSNGAYKYVLPPQ”: the “soluble fraction (log2)” value is 0.0519.

For “HMKNLSQAEFMYLFKILAFGSTDPDNHPEMAATGMEIAKMLQGLLLSGNVLADILRKNQNVQFWL”, the “soluble fraction (log2)” value was -0.204.

For the sequence “HMKNNITFSEFLHEVDNGRVIKVNIQGNNITGILADGKSFNTYTPNDPSLIEKLTSKGVSISATPI”, the “soluble fraction (log2)” value worked out at 0.0489. With “HMKNNLKGSPIIIAGGYGVGSKENFNLLFDLAKVLNAEVGASRAAVDAGFVEHDRQIGQTGVTVRP”, the “soluble fraction (log2)” value worked out at 0.0735. For the sequence “HMKNNYQYIVDQIKQLILDGELIVGDRLPSERDLSEMYQVSRASVREALKALETIGLLESRHGGGNYIVNH”, the “soluble fraction (log2)” value is -0.671. For “HMKNQIGFKIKNARRKASISQADLSAKLGISSSYLNLIESGKRNVNVDLLLKVSDVLNIELKDLSK”, the “soluble fraction (log2)” value is -0.781. In the case of “HMKNTYTVVSGDTLWGIASRKLGGGSNWTKIYDANAATIESVANRRRGGRGSDHGHWIYPGTVLTI” it was -0.0158; in that of “HMKNYYRILGLNIDAEYEEIKAAYRILAQRHHPDKGGAAAEFRLIQEAYDILSNPLTKRNYDADLLATLN”, -0.521. Turning to “HMKPDMAVIVGSRTLTFATTTDRQILVLRTDGTMVNRLSMKAGETRTITLPAGVYIVNGKKIIV”, the “soluble fraction (log2)” value was -0.808.

With “HMKPFSLESYKAFVVKRLGLFPETSSAQMHDWLKEEYPDFPLITPRTVYNFVMKIRQDYGIAKV”, the “soluble fraction (log2)” value is -3.66. On to “HMKPFVVVPIDQVRVGMFIQLDLGWMQHPFPVGSFRVASEAQIDTLRSLDLESVRYLPAKSDPAFQQP”, for which the “soluble fraction (log2)” value is -2.1. In the case of “HMKPGNFILDLLRTYGQKGTSAQNLMSSSRMFNFSENLIRVTLSRLAARGLIENFERGHYRLAE”, the “soluble fraction (log2)” value was -0.333.

On to “HMKPGTIVTGVVVDIKSDVVVVNAGLKSEGIVPIEQFRNDRGELEVAIGDEVKVALDSLENGFGETVLSRE”, for which the “soluble fraction (log2)” value is 0.0252.

Consider “HMKPQKRYLFEEVLTFLKHNSEKSFNYKQLGAAMEISNESDRFTLLETLEELKHQGFVVEKEIGKYQAKE”, for which the “soluble fraction (log2)” value was -0.527.

In the case of “HMKPRVTVVTLGVDDLERAVRFYAEGLGFPTEGIVGREFEFGAVAFFDMQPGLRLALWPRRSLAHDSGLP”, the “soluble fraction (log2)” value was -0.306. As to “HMKPSISKIYALWGVLQRSGKIKSQDKAALDAFVRKYTGVDHVKWLDESQARKIIEILKQMIA”, the “soluble fraction (log2)” value is -0.458. With “HMKPSKTDEAEYWLMERLEEGPQPAGDLIRIGEEFGYTPKILRDAGERFNMERYKDGLDHWMWKLPN”, the “soluble fraction (log2)” value is -0.0945.

“HMKPVTNHTVKFYVDDVLWKTVTVKHGGNVRLADLPMSDGKTFVGWSESVVNVTKDLTVFALFS”: the “soluble fraction (log2)” value was -0.562.

“HMKPVYNKVEIPRGGEYALVLSDGTKVHLNSMSSLRFPVAFTTGKREVELQGEAYFEVSKTGQPFIVNV”: the “soluble fraction (log2)” value was -0.0523.

Turning to “HMKQGKGIIVVDGKLMPEDFNVATLSLDEVESITVLKGEKAVALYGEKAKEREVLLITTQKG”, the “soluble fraction (log2)” value is 0.423. In the case of “HMKQKAEVIFVSKTIMEALSKGVRLTPENLKSETELPIDDFYARLKELIDNGSVVESRENGESYLEAGN”, the “soluble fraction (log2)” value stood at 0.0977. On to “HMKQLNKRQDDILSLAEKEGYVSVENLAKTFTVSQQTIRRDINYLSDHEFLVRTHGGAFYSSG”, for which the “soluble fraction (log2)” value is 0.00837. In the case of “HMKQNNYATKKELNFFVSRLISLLSYRDFFNPIEKKESMINNIEAIFTRSSLTSQELRTLHGIISNLVE” it was -3.07; in that of “HMKQPNSYGSVHKLPGKRRKPWRVRKTSGWLLDEQSGTVKQQYITIGYYATKQEALIALADYNENP”, -1.62. Take “HMKQQFTREQIIELMYKAYKKHKKKLNRVEIKKEKALPSYVTIGRYLNETSIKKIWEIVLSEKE”: the “soluble fraction (log2)” value is -0.43. In the case of “HMKQVEVESVIGKSEEAANSILTKAGLKVNIGYKEDSSKPTDTVLSQDPAPGEKVDEGTTVTIVVNNYKKP” it was 0.0614; in that of “HMKRANGTGSVFKLNGKRRNPWVARVTQGFDDKGRQKYVNLGYYKTKREAENELLSYNSNPYDAN”, 0.214. Consider “HMKREWKDDDPTVPAGWKVAWTTTSDNRAKIAFMSPDKKIFHSRKSALQHMLAAGTYAQSDIEKMTKGL”, for which the “soluble fraction (log2)” value was -0.112. On to “HMKRFSPPSIEEVDSYIREKGYTVDAERFVNFYESKGWYVGKNKMKNWRAAVATWQKEDNKRN”, for which the “soluble fraction (log2)” value came out at 0.199.

With “HMKRGDAYASEMIARLKEAHLIVMEGTLYPLLTRLKNDGLLSYRWEESTQGPPRKYYSITPVG”, the “soluble fraction (log2)” value was 0.424. Regarding “HMKRITGHLTEKNKKWYAVINLYDTDGKRKEKWQGLNLDANKGNKREAEHRLRQILDQYNTD”, the “soluble fraction (log2)” value was -0.0127. With “HMKRITKKQLSQQLEQFFSSQPGKKLTLKDIFRALHLDTHPLKMLAMDIMEEMAWDDFITKKGENAYQLNT”, the “soluble fraction (log2)” value was -0.729. “HMKRKAIDQSWQPDKEAIEILSKAGVNEEFIKEEIPEFILYWSEKGEESDTWNSKFIAQVRRQWAKTQH”: the “soluble fraction (log2)” value was -0.0567. In the case of “HMKRQATLQIGSKRFGMDDLYFKFTVPFEDSEKLGTATIEAYNLSPATRNSIKKGMPIILNAGYEGDI”, the “soluble fraction (log2)” value is -0.225. For “HMKRTMVEAAMVAKLFNLTVRRIQQLTQDGVLTTELVDKKRRYDLLLTVQKYIAYLQEKVAK”, the “soluble fraction (log2)” value was -3.24. As for “HMKRVVFFNGISWYHRTKELLDDMTTKYGKKGGFATPEEAEKSYWEYEERYKDRQRELQVAYLKN”, the “soluble fraction (log2)” value is -0.648. With “HMKSDEGEIKKIVEEIISKNASVVEDYKKGKEVALQFLVGQGMKATKGSANPELLKKIILENI”, the “soluble fraction (log2)” value amounted to 0.506. As for “HMKSDVVFDITDGTVKAMLKFNRSDVTILNNDGKNYYLFTANGEFTFKYQDGSGEYYEKTVYVDWLEDE”, the “soluble fraction (log2)” value was -1.24. Turning to “HMKSFIWKQYTVQITKKNVKNTNVRIKRDNPHVILMSIPYSATYKAGLLALETPHIRHWLDNYERKLKQ”, the “soluble fraction (log2)” value is -1.48.

Turning to “HMKSIEVPNLINMTLRKAKIELIDNEFNLDTVIYEYNPNIREGRVSLQIPESGTILKSGSNISIHISKGIP”, the “soluble fraction (log2)” value is -1.53. “HMKSIPKIKWNSTLENIKNFEYQDNFFESKEMYDLLVSFYKYGFVIIKNIPTNNNFIVKFANSIGS”: the “soluble fraction (log2)” value is -0.021.

As for “HMKSISMANGNVQLRINGVLASSLEVAALSPEDIKRVEYHDNPGLRYGEGIDIVLDYITIKRT”, the “soluble fraction (log2)” value was -0.384.

As to “HMKSISMSKLRHLLQLYVQGRSKKLISEQTGIARNTLKKYIKEFSEAGLSLEALLALSDKELEDLFVK”, the “soluble fraction (log2)” value is -1.01. For “HMKSLPQKLLAYLESQGLTRDEAGEFVKQGLKITSNDVDQIQLLLANTEVIDIKLQEFIAQK”, the “soluble fraction (log2)” value came out at 0.217. Turning to “HMKSLVDLEISIVKKDMNYFVLPKINGEPLLMERISASEYKDFQLGKLSKEDIFQKHYPDYSEENIKNGRG”, the “soluble fraction (log2)” value is 0.145. Turning to “HMKSSISKNWNPSKDAIEILTRAGIDQEFLENLIPEFVIYWIERSDVLISYNSKFIEHARLKWAQHTAEIQ”, the “soluble fraction (log2)” value is -0.0223.

With “HMKSTPMYATAIVNIRSKAGTDSEILGKLNPSEEISVISSENGWSKVSYNGKEAYISSNYLSNAKP”, the “soluble fraction (log2)” value is -0.175. For “HMKSVFQPIYEDLLSRIQDGRLLPGMPLPSENALAVQYGTSRPTIRRAIGLLVEKSLVIRQPGIGSIVAS”, the “soluble fraction (log2)” value is -1.17. For “HMKTALQENVRAYRLERKWTQQALAEALEVSVGAVSKWESGVSRPELETLMRLAELFGVSTDALLGF”, the “soluble fraction (log2)” value was -1.75. Turning to “HMKTAWDELNEVIEAYRGQESALIEVLHKAQEIMGYLPRDVQEAIAEGLHVPLNKVYGVVSFYHHFSV”, the “soluble fraction (log2)” value was found to be 0.178. In the case of “HMKTERTVRVQDQHLHYTLEEKPIKNVNLRIRPDGSVYVSAPFGTSRTLIDDFVASKSKQILAIQQAQSAM” it was -0.0134; in that of “HMKTGIGIVEANGGLRLRSQASTSSDVLSTAHNGDNVVVIRQVGNWYLVNYNLKIGYMHSDYITFKE”, -4.82; in that of “HMKTGNIIAVSLVWKGKYYMIRMFFPSAARPSRADVQTEIEKVYPGSKLSSFSVSDYEPGQPLLQV”, -2.31. In the case of “HMKTGTTGLIGEIGVVKKALTPEGKVFVHGELWRAVSKTASPEGTLVQVIKINNLVLEVEKV” it was -1.47.
